Measurements published in patent US20130130922.
Where two headings read alike, the source gives them in different places.

Legend:
[1] = biological target: M.SssI (original) (Spiroplasma sp.?) (UniProt P15840); settings: transalkylation ~2 orders of magnitude lower than double mutant; AdoMet analogs; DNA for this comparison not explicitly stated
[2] = biological target: M.SssI Q142A/N370A Q142A,N370A (Spiroplasma sp.?) (UniProt P15840); settings: Ado-6-amine 40 uM, Hin6I protection
[3] = biological target: M.SssI Q142A/N370A Q142A,N370A (Spiroplasma sp.?) (UniProt P15840); settings: Ado-11-amine 160-320 uM, no Mg, MTase:DNA 3.6:1, Hin6I protection
[4] = biological target: M.SssI Q142A/N370A Q142A,N370A (Spiroplasma sp.?) (UniProt P15840)
[5] = biological target: T1, M.HpaII (original) (UniProt P15446); settings: ~2 orders of magnitude lower transalkylation than double mutant
T1 sequence: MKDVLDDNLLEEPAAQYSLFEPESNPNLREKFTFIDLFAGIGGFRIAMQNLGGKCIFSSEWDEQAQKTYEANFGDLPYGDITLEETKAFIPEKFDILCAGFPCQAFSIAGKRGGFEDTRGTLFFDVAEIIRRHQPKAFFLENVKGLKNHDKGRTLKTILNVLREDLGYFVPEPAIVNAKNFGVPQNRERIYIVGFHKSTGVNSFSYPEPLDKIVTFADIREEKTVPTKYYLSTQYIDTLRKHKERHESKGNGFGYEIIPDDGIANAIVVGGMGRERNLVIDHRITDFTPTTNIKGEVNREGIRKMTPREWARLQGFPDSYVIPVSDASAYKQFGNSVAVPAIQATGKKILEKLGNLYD

M.SssI Q142A/N370A Q142A,N370A (Spiroplasma sp.?), sequence (P15840 whole entry Q142A/N370A): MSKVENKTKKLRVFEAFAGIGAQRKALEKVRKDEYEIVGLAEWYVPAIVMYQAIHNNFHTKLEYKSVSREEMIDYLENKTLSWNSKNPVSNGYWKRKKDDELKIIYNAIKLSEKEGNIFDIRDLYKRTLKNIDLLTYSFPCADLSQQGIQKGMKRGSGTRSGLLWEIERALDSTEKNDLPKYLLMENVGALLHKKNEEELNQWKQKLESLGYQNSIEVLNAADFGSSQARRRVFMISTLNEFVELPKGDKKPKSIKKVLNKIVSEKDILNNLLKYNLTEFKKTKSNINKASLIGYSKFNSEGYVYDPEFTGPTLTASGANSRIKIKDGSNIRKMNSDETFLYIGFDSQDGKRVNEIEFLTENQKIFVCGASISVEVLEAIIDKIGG
M.SssI (original) (Spiroplasma sp.?), sequence (P15840 whole entry): as the sequence (P15840 whole entry Q142A/N370A) above, with A142Q, A370N counted along it

1343 bp DNA fragment with 18 SssI sites
binding signal (fold of Q142A/N370A) [1]: 0.01 | activity ([2]; 10 mM MgCl2, MTase:DNA 2:1, 37 C 2 h): 30 % protected | activity ([2]; no MgCl2, MTase:DNA 2:1, 37 C 2 h): 70 % protected | activity [3]: 50 % protected

Control-Sss nonspecific fragment (no target sites)
activity ([4]; nonspecific probe, same conditions): < 1 % recovered

Control-Sss specific fragment (two SssI sites)
activity ([4]; Ado-6-amine 50 uM, 1450 nM enzyme, 37 C 30 min, with human genomic DNA): 80 % recovered

DNA with CCGG sites (unspecified)
binding signal (fold of Q104A/N335A) [5]: 0.01
